For assay [1], the target named is T1, membrane-bound full-length human CD89 on HEK293F cells (human, UniProt P24071 22-287).
T1 construct: 2 or transient transfectants; also called membrane human CD89; human FcaRI
Kind of assay: FACS HEK293F-huCD89.
Protocol: After extensive washing in PBS/BSA/NaN₃, cells were subsequently incubated with 1:200 diluted PE-conjugated goat anti-human IgG Fcy-specific antibodies (Jackson ImmunoResearch) for 30 minutes at 4° C. After extensive washing in PBS/BSA/NaN₃, cells were fixed in 2% formaldehyde in PBS/BSA/NaN₃ for 30 minutes at 4° C.

Assay [2] concerns the target T2, recombinant C-terminal polyhistidine-tagged human (extracellular) CD89 (Sino Biological) (human, UniProt P24071 22-227).
T2 construct: extracellular domain; bought protein; also called rhuCD89; soluble monomeric rhuCD89
Kind of assay: ELISA, coated rhuCD89.

Assay [3] deals with T1, membrane-bound full-length human CD89 …. Kind of assay: FACS, antibody before secretory IgA on HEK293F-huCD89; IgA detected.
The target is the same in assay [4]. Kind of assay: FACS, antibody before non-aggregated serum IgA on HEK293F-huCD89; IgA detected. (In flow cytometry, cells or beads pass a laser one at a time.)
The target is the same in assay [5]. Kind of assay: FACS, antibody before heat-aggregated serum IgA on HEK293F-huCD89; IgA detected.
The target is the same in assay [6]. Kind of assay: FACS HEK293F-huCD89, purified Ab.
Protocol: After extensive washing in PBS/BSA/NaN₃, cells were subsequently incubated with 1:200 diluted PE-conjugated goat anti-human IgG Fcγ-specific antibodies (Jackson ImmunoResearch) for 30 minutes at 4° C. After extensive washing in PBS/BSA/NaN₃, cells were fixed in 4% formaldehyde in PBS/BSA/NaN₃ for 30 minutes at 4° C.
Assay [7] addresses T2, recombinant C-terminal …. Kind of assay: ELISA, coated rhuCD89, purified Ab. (In general: In an ELISA, binding on a coated surface is turned into a signal by an enzyme label.)
Protocol: After extensive washing with PBS/0.05% Tween 20, plates were blocked with PBS/0.05% Tween 20/1% BSA (Roche) for 1 hour at RT. […] After extensive washing in PBS/0.05% Tween 20, binding of antibodies on rhuCD89 was determined with 1:5,000 diluted horseradish peroxidase (HRP)-conjugated goat anti-human IgG Fcγ-specific antibodies (Jackson ImmunoResearch) for 1 hour at RT, followed by a ready-to-use solution of TMB substrate (Invitrogen) for colorimetric detection. After adding 1 M HCL, binding (optical density) of antibodies on rhuCD89 was measured at wavelength of 450 nm (reference wavelength of 655 nm) using a microplate reader (Synergy HTX; BioTek).
For assay [8], the target named is T1, membrane-bound full-length human CD89 …. Kind of assay: FACS HEK293F-huCD89; inhibition of serum human IgA binding.
Protocol: (§1) After extensive washing in PBS/BSA/NaN₃, 1:200 diluted PE-conjugated streptavidin (Jackson ImmunoResearch) was added, and incubated for 30 minutes at 4° C. After extensive washing in PBS/BSA/NaN₃, cells were fixed in 4% formaldehyde in PBS/BSA/NaN₃ for 30 minutes at 4° C.
For assay [9] the target is unchanged. Kind of assay: FACS HEK293F-huCD89; inhibition of secretory human IgA binding.
Protocol: as §1
Assay [10] addresses T2, recombinant C-terminal …. Kind of assay: BLI (Octet RED96), biotinylated Ab on streptavidin tips, rhuCD89 analyte, 1:1 model.
Protocol: Equilibrium dissociation constants (KD) were determined using a 1:1 Langmuir binding model in Octet® RED96 software (ForteBio).
In assay [11] the target is T2, recombinant C-terminal …. Kind of assay: ELISA on plate-coated rhuCD89; titrated supernatant; HRP goat anti-human IgG Fc detection, OD 450 nm [VL3].
Assay [12] addresses T2, recombinant C-terminal …. Kind of assay: ELISA on plate-coated rhuCD89; titrated supernatant; HRP goat anti-human IgG Fc detection, OD 450 nm [VL4].

Positions count from the first letter of the chain named. Numbers in names are those of the source. Where “and” joins values, the source holds several entries; their conditions need not be identical. Equal values may be shown once.

B1: CD89/IgA blocking chimeric mouse/human IgG4/kappa anti-human CD89 antibody 20B4 (antibody)
heavy: not shown
light: DILMTQSPSSMSVSLGDTVSITCHASQDISRNIGWLQQKPGKSFKGLIYHGTNLEDGVPSRFSGSGSGADYSLTISSLESEDFADYYCVQYAQFPRTFGGGTKLEIKRTVAAPSVFIFPPSDEQLKSGTASVVCLLNNFYPREAKVQWKVDNALQSGNSQESVTEQDSKDSTYSLSSTLTLSKADYEKHKVYACEVTHQGLSSPVTKSFNRGEC
notes: stabilized (S239P) human IgG4; also called chimeric 20B4
Usually EC50 stands for the concentration at which the effect is half-maximal. B1: the 50% effective concentration (EC50) in [1] was 0.296 mg/L; in assay [2], 0.009 mg/L.

B2: CD89/IgA blocking chimeric mouse/human IgG4/kappa anti-human CD89 antibody 16D6 (antibody)
heavy: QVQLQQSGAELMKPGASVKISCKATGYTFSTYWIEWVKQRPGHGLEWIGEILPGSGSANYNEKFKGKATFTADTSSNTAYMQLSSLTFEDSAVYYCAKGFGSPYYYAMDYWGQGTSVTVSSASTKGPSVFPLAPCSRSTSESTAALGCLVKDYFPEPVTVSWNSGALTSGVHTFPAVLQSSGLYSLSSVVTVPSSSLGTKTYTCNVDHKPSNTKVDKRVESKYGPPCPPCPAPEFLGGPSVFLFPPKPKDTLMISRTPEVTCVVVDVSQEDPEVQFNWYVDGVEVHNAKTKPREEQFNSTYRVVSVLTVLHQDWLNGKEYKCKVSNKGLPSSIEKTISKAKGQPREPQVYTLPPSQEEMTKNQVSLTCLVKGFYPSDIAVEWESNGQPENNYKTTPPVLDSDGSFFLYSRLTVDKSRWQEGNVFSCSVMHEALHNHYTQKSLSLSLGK
light: EIVLTQSPALMAASPGEKVTITCSVSSSISSSNLHWYQQKSETSPKPWIYGTSKLASGVPVRFSGSGSGTSYSLTISNMEAEDAATYYCQQWSSFPLTFGGGTKLEIKRTVAAPSVFIFPPSDEQLKSGTASVVCLLNNFYPREAKVQWKVDNALQSGNSQESVTEQDSKDSTYSLSSTLTLSKADYEKHKVYACEVTHQGLSSPVTKSFNRGEC
notes: stabilized (S239P) human IgG4; also called chimeric 16D6
Consider B2, for which the results for the concentration for a half-maximal effect (EC50) in [1] and in assay [2] were 1.79 mg/L and 0.108 mg/L, respectively.

B3: CD89/IgA blocking chimeric mouse/human IgG4/kappa anti-human CD89 antibody 30C7 (antibody)
heavy: not shown
light: DIVMSQSPSSLAVSAGEKVTMSCKSSQSLLNSRTRKNYLAWYQQKPGQSPKLLIYWASTRESGVPDRFTGSGSGTDFTLTISSVQAEDLAVYYCKQSYNLMYTFGGGTKLEIKRTVAAPSVFIFPPSDEQLKSGTASVVCLLNNFYPREAKVQWKVDNALQSGNSQESVTEQDSKDSTYSLSSTLTLSKADYEKHKVYACEVTHQGLSSPVTKSFNRGEC
notes: stabilized (S239P) human IgG4; also called chimeric 30C7
Consider B3, for which the results for the “IC50 (read off the curve)” value in assay [3], in [4] and in [5] were roughly 1 mg/L, roughly 0.9 mg/L and roughly 0.8 mg/L, respectively.

B4: CD89/IgA blocking chimeric mouse/human IgG4/kappa anti-human CD89 antibody 10E7 (antibody)
heavy: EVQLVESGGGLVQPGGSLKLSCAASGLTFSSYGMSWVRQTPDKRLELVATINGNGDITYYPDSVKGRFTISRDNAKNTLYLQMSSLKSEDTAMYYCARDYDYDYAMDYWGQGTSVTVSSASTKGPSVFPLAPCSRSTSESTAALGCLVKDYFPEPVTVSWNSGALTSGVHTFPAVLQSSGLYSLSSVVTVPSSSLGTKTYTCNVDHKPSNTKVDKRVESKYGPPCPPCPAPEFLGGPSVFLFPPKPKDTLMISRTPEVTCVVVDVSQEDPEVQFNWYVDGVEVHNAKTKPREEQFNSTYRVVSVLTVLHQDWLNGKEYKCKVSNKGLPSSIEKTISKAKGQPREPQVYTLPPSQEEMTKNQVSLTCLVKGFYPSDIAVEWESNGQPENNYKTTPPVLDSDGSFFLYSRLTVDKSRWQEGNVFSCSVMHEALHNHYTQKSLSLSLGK
light: DIQMTQSTSSLSASLGDSVTISCRASQDIINYLNWYQQKPDGTVKLLIYYTSRLHSGVPSRFSGSGSGTEYSLTVSNLEKEDIATYFCQQGKTLPYTFGGGTKLEIKRTVAAPSVFIFPPSDEQLKSGTASVVCLLNNFYPREAKVQWKVDNALQSGNSQESVTEQDSKDSTYSLSSTLTLSKADYEKHKVYACEVTHQGLSSPVTKSFNRGEC
notes: stabilized (S239P) human IgG4; biotinylated in the Octet assay; also called chimeric 10E7; chimer IgG4/k 10E7
What is called IC50 is the midpoint of a concentration-inhibition curve. Read a low IC50 as inhibition by little substance. A word on the Kd: it is a measure of binding affinity in units of concentration. What is called koff is the rate constant with which the complex falls apart. Broadly, the kon is a measure of how fast the partners come together. Turning to B4, the EC50 in assay [1] is 1.25 mg/L and ~1 mg/L; in assay [2], 0.016 mg/L and ~0.02 mg/L; in assay [6] it was roughly 1.3 mg/L; in assay [7], roughly 0.01 mg/L. For the same molecule, the IC50 in [8] is roughly 1.6 mg/L; in [9] it was roughly 1 mg/L. The Kd in assay [10] is 1.28 nM. In assay [10], the koff worked out at 0.00106 s⁻¹. In [10], the kon worked out at 832000 M⁻¹ s⁻¹.

B5: CD89/IgA blocking chimeric mouse/human IgG4/kappa anti-human CD89 antibody 8F3 (antibody)
heavy: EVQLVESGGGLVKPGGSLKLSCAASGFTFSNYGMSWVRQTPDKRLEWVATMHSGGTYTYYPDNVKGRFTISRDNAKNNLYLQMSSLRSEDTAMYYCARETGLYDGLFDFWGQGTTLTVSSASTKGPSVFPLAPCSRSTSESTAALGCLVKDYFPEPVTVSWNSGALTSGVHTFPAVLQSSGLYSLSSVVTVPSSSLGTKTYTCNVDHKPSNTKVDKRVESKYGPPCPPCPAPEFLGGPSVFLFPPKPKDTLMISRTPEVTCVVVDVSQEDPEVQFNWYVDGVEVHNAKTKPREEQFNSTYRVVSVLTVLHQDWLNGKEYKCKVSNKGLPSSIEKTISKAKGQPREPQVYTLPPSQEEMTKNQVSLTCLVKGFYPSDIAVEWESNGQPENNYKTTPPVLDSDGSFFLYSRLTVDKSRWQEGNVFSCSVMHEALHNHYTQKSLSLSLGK
light: DVQITQSPSYLAASPGETITINCRASKTISKYLAWYQEKPGKTNMLLIYSGSTLQSGVPSRFSGSGSGTDFTLTISSLEPEDLAMYYCQQHDEYPWTFGGGTKLEIKRTVAAPSVFIFPPSDEQLKSGTASVVCLLNNFYPREAKVQWKVDNALQSGNSQESVTEQDSKDSTYSLSSTLTLSKADYEKHKVYACEVTHQGLSSPVTKSFNRGEC
notes: stabilized (S239P) human IgG4; also called chimeric 8F3
With B5, the values for the EC50 in assay [1] and in [2] were 1.32 mg/L and 0.031 mg/L, respectively. Besides, the “IC50 (read off the curve)” value in assay [3], in [4] and in assay [5] was roughly 1 mg/L each time.

B6: humanized IgG4/kappa anti-human CD89 monoclonal antibody 10E7 version VH2VL3 (antibody)
heavy: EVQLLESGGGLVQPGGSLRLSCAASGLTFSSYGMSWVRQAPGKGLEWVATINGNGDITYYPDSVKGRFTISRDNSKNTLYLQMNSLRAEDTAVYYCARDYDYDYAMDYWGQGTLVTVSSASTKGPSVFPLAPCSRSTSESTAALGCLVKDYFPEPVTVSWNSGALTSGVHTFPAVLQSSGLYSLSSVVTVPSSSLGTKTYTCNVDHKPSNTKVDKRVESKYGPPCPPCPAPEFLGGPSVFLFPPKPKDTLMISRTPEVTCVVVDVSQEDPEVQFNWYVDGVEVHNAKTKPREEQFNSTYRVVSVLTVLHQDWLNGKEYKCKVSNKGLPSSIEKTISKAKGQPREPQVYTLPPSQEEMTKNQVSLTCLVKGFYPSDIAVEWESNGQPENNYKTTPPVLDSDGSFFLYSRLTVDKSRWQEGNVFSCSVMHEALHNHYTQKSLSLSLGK
light: DIQMTQSPSSLSASVGDRVTITCRASQDIINYLNWYQQKPGKAVKLLIYYTSRLHSGVPSRFSGSGSGTDYTLTISSLQPEDFATYYCQQGKTLPYTFGQGTKLEIKRTVAAPSVFIFPPSDEQLKSGTASVVCLLNNFYPREAKVQWKVDNALQSGNSQESVTEQDSKDSTYSLSSTLTLSKADYEKHKVYACEVTHQGLSSPVTKSFNRGEC
notes: tested as supernatant; signal peptide end derived as for m17
As usually defined, the EC50 (read off the curve) is the concentration giving half of the maximal effect. Turning to B6, the “EC50 (read off the curve)” value in assay [11] is roughly 0.04 mg/L.

B7: humanized IgG4/kappa anti-human CD89 monoclonal antibody 10E7 version VH1VL4 (antibody)
heavy: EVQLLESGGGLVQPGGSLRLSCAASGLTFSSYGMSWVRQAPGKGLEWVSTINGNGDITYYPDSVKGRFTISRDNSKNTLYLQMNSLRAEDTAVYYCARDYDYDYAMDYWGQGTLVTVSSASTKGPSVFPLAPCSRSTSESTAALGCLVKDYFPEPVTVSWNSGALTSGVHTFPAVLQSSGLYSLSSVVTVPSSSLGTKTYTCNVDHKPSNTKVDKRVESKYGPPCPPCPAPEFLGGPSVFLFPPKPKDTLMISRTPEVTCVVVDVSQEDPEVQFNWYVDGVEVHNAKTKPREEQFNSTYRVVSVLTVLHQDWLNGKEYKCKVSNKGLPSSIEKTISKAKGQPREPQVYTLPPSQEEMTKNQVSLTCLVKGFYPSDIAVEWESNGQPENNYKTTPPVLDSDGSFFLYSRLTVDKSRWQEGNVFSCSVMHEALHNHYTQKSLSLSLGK
light: B6 light with A43T, Y87F
notes: as for B6
Turning to B7, in assay [12], the “EC50 (read off the curve)” value was roughly 0.03 mg/L.

B8: 'CDR2 deamidation-repaired' humanized IgG4/kappa anti-human CD89 monoclonal antibody 10E7 version VH3SQVL3 (antibody)
heavy: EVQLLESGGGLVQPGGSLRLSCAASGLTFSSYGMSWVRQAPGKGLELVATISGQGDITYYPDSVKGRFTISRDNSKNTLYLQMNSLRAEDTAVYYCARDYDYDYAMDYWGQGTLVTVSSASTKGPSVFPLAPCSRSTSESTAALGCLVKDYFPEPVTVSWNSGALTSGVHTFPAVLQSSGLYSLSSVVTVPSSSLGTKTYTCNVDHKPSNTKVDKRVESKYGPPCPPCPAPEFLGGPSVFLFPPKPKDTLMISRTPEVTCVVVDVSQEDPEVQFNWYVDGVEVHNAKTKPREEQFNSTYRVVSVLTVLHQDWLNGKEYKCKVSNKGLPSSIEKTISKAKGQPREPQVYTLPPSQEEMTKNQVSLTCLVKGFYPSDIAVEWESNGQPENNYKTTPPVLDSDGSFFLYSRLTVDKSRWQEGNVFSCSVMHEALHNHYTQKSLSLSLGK
light: B6 light
notes: Biotinylated in the Octet assay; also called Humanized VH3SQVL3
In turn, B8 showed an EC50 in [6] of roughly 0.6 mg/L. Further, in assay [7], the EC50 was roughly 0.01 mg/L. This molecule also came in with a half-inhibitory concentration (IC50) in assay [8] of roughly 0.9 mg/L. The molecule also had an IC50 in assay [9] of roughly 0.6 mg/L. Also, in [10], the Kd was 0.82 nM, the koff worked out at 0.000941 s⁻¹ and the kon amounted to 1.15e+06 M⁻¹ s⁻¹.

B9: humanized IgG4/kappa anti-human CD89 monoclonal antibody 10E7 version VH2VL4 (antibody)
heavy: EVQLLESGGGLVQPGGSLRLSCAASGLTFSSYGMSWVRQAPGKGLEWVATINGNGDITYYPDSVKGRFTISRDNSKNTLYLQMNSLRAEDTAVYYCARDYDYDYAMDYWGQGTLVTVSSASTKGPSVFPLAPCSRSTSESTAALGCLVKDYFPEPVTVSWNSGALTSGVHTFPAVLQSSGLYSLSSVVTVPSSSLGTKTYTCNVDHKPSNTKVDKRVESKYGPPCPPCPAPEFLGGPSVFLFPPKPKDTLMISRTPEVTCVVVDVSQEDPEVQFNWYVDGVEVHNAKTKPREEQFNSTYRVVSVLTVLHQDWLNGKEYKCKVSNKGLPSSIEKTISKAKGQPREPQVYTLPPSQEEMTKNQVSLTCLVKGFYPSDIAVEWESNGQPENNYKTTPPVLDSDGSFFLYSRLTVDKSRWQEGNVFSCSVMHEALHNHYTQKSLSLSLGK
light: B6 light with A43T, Y87F
notes: as for B6
Take B9: the “EC50 (read off the curve)” value in assay [12] is roughly 0.03 mg/L.

B10: 'CDR2 deamidation-repaired' humanized IgG4/kappa anti-human CD89 monoclonal antibody 10E7 version VH3STVL3 (antibody)
heavy: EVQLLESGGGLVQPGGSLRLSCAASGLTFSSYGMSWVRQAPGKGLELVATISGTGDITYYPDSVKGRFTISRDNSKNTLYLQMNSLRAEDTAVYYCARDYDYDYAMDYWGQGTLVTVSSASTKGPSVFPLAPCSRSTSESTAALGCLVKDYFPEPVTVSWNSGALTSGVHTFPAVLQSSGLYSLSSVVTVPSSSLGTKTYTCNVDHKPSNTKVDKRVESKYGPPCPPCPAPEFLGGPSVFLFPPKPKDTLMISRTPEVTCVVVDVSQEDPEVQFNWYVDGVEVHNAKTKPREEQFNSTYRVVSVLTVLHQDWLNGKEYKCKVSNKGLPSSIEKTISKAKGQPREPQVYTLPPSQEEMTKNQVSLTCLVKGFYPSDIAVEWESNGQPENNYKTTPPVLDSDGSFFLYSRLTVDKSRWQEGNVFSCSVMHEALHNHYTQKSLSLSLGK
light: B6 light
notes: Biotinylated in the Octet assay; also called Humanized VH3STVL3
As for B10, the EC50 in assay [6] was roughly 0.6 mg/L. For the same molecule, in assay [7], the EC50 is roughly 0.01 mg/L. The molecule also yielded an IC50 in assay [8] of roughly 0.9 mg/L. The molecule further had an IC50 in assay [9] of roughly 0.6 mg/L. In addition, in [10], the equilibrium dissociation constant (Kd) was 0.92 nM, the koff amounted to 0.000974 s⁻¹ and the on-rate (kon) worked out at 1.06e+06 M⁻¹ s⁻¹.

B11: humanized IgG4/kappa anti-human CD89 monoclonal antibody 10E7 version VH1VL3 (antibody)
heavy: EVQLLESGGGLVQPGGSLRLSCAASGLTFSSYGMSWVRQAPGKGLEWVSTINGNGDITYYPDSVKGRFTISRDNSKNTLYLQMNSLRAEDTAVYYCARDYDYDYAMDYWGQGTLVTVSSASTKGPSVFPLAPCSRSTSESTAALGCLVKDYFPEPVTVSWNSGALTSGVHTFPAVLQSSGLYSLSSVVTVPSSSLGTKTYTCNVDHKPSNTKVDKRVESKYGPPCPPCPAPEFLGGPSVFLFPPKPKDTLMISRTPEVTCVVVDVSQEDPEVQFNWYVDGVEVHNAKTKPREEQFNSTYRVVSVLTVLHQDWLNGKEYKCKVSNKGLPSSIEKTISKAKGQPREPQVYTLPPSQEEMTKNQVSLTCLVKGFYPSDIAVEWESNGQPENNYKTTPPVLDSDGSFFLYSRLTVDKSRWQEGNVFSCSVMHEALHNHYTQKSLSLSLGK
light: B6 light
notes: as for B6
On to B11, for which, in [11], the “EC50 (read off the curve)” value was roughly 0.03 mg/L.

The values above are taken from patent US20230242646A1 (JJP BIOLOGICS SP Z O O, published 2023).
